Laboratory results published in US9958461B2, “Detection of protein to protein interactions” (THE GOVERNING COUNCIL OF THE UNIVERSITY OF TORONTO, priority 2013, dated 2018).

B1: PTPN12 (protein, UniProt Q05209 1-780, looked up)
Tyrosine-protein phosphatase …: MEQVEILRKFIQRVQAMKSPDHNGEDNFARDFMRLRRLSTKYRTEKIYPTATGEKEENVKKNRYKDILPFDHSRVKLTLKTPSQDSDYINANFIKGVYGPKAYVATQGPLANTVIDFWRMIWEYNVVIIVMACREFEMGRKKCERYWPLYGEDPITFAPFKISCEDEQARTDYFIRTLLLEFQNESRRLYQFHYVNWPDHDVPSSFDSILDMISLMRKYQEHEDVPICIHCSAGCGRTGAICAIDYTWNLLKAGKIPEEFNVFNLIQEMRTQRHSAVQTKEQYELVHRAIAQLFEKQLQLYEIHGAQKIADGVNEINTENMVSSIEPEKQDSPPPKPPRTRSCLVEGDAKEEILQPPEPHPVPPILTPSPPSAFPTVTTVWQDNDRYHPKPVLHMVSSEQHSADLNRNYSKSTELPGKNESTIEQIDKKLERNLSFEIKKVPLQEGPKSFDGNTLLNRGHAIKIKSASPCIADKISKPQELSSDLNVGDTSQNSCVDCSVTQSNKVSVTPPEESQNSDTPPRPDRLPLDEKGHVTWSFHGPENAIPIPDLSEGNSSDINYQTRKTVSLTPSPTTQVETPDLVDHDNTSPLFRTPLSFTNPLHSDDSDSDERNSDGAVTQNKTNISTASATVSAATSTESISTRKVLPMSIARHNIAGTTHSGAEKDVDVSEDSPPPLPERTPESFVLASEHNTPVRSEWSELQSQERSEQKKSEGLITSENEKCDHPAGGIHYEMCIECPPTFSDKREQISENPTEATDIGFGNRCGKPKGPRDPPSEWT
B2: PTPN22 (protein, UniProt Q9Y2R2 1-807, looked up)
Tyrosine-protein phosphatase …: MDQREILQKFLDEAQSKKITKEEFANEFLKLKRQSTKYKADKTYPTTVAEKPKNIKKNRYKDILPYDYSRVELSLITSDEDSSYINANFIKGVYGPKAYIATQGPLSTTLLDFWRMIWEYSVLIIVMACMEYEMGKKKCERYWAEPGEMQLEFGPFSVSCEAEKRKSDYIIRTLKVKFNSETRTIYQFHYKNWPDHDVPSSIDPILELIWDVRCYQEDDSVPICIHCSAGCGRTGVICAIDYTWMLLKDGIIPENFSVFSLIREMRTQRPSLVQTQEQYELVYNAVLELFKRQMDVIRDKHSGTESQAKHCIPEKNHTLQADSYSPNLPKSTTKAAKMMNQQRTKMEIKESSSFDFRTSEISAKEELVLHPAKSSTSFDFLELNYSFDKNADTTMKWQTKAFPIVGEPLQKHQSLDLGSLLFEGCSNSKPVNAAGRYFNSKVPITRTKSTPFELIQQRETKEVDSKENFSYLESQPHDSCFVEMQAQKVMHVSSAELNYSLPYDSKHQIRNASNVKHHDSSALGVYSYIPLVENPYFSSWPPSGTSSKMSLDLPEKQDGTVFPSSLLPTSSTSLFSYYNSHDSLSLNSPTNISSLLNQESAVLATAPRIDDEIPPPLPVRTPESFIVVEEAGEFSPNVPKSLSSAVKVKIGTSLEWGGTSEPKKFDDSVILRPSKSVKLRSPKSELHQDRSSPPPPLPERTLESFFLADEDCMQAQSIETYSTSYPDTMENSTSSKQTLKTPGKSFTRSKSLKILRNMKKSICNSCPPNKPAESVQSNNSSSFLNFGFANRFSKPKGPRNPPPTWNI
B3: CAV2 (protein, UniProt P51636 1-162, looked up)
Caveolin-2: MGLETEKADVQLFMDDDSYSHHSGLEYADPEKFADSDQDRDPHRLNSHLKLGFEDVIAEPVTTHSFDKVWICSHALFEISKYVMYKFLTVFLAIPLAFIAGILFATLSCLHIWILMPFVKTCLMVLPSVQTIWKSVTDVIIAPLCTSVGRCFSSVSLQLSQD
B4: STAP2 (protein, UniProt Q9UGK3 1-403, looked up)
Signal-transducing adaptor …: MASALRPPRVPKPKGVLPSHYYESFLEKKGPCDRDYKKFWAGLQGLTIYFYNSNRDFQHVEKLNLGAFEKLTDEIPWGSSRDPGTHFSLILRDQEIKFKVETLECREMWKGFILTVVELRVPTDLTLLPGHLYMMSEVLAKEEARRALETPSCFLKVSRLEAQLLLERYPECGNLLLRPSGDGADGVSVTTRQMHNGTHVVRHYKVKREGPKYVIDVEQPFSCTSLDAVVNYFVSHTKKALVPFLLDEDYEKVLGYVEADKENGENVWVAPSAPGPGPAPCTGGPKPLSPASSQDKLPPLPPLPNQEENYVTPIGDGPAVDYENQDVASSSWPVILKPKKLPKPPAKLPKPPVGPKPEPKVFNGGLGRKLPVSSAQPLFPTAGLADMTAELQKKLEKRRALEH
B5: ITK (protein, UniProt Q08881 1-620, looked up)
Tyrosine-protein kinase …: MNNFILLEEQLIKKSQQKRRTSPSNFKVRFFVLTKASLAYFEDRHGKKRTLKGSIELSRIKCVEIVKSDISIPCHYKYPFQVVHDNYLLYVFAPDRESRQRWVLALKEETRNNNSLVPKYHPNFWMDGKWRCCSQLEKLATGCAQYDPTKNASKKPLPPTPEDNRRPLWEPEETVVIALYDYQTNDPQELALRRNEEYCLLDSSEIHWWRVQDRNGHEGYVPSSYLVEKSPNNLETYEWYNKSISRDKAEKLLLDTGKEGAFMVRDSRTAGTYTVSVFTKAVVSENNPCIKHYHIKETNDNPKRYYVAEKYVFDSIPLLINYHQHNGGGLVTRLRYPVCFGRQKAPVTAGLRYGKWVIDPSELTFVQEIGSGQFGLVHLGYWLNKDKVAIKTIREGAMSEEDFIEEAEVMMKLSHPKLVQLYGVCLEQAPICLVFEFMEHGCLSDYLRTQRGLFAAETLLGMCLDVCEGMAYLEEACVIHRDLAARNCLVGENQVIKVSDFGMTRFVLDDQYTSSTGTKFPVKWASPEVFSFSRYSSKSDVWSFGVLMWEVFSEGKIPYENRSNSEVVEDISTGFRLYKPRLASTHVYQIMNHCWKERPEDRPAFSRLLRQLAEIAESGL
B6: SLA (protein, UniProt Q13239 2-276, looked up)
Src-like-adapter: GNSMKSTPAPAERPLPNPEGLDSDFLAVLSDYPSPDISPPIFRRGEKLRVISDEGGWWKAISLSTGRESYIPGICVARVYHGWLFEGLGRDKAEELLQLPDTKVGSFMIRESETKKGFYSLSVRHRQVKHYRIFRLPNNWYYISPRLTFQCLEDLVNHYSEVADGLCCVLTTPCLTQSTAAPAVRASSSPVTLRQKTVDWRRVSRLQEDPEGTENPLGVDESLFSYGLRESIASYLSLTSEDNTSFDRKKKSISLMYGGSKRKSSFFSSPPYFED
B7: PLCG2 (protein, UniProt P16885 1-1265, looked up)
1-phosphatidylinositol …: MSTTVNVDSLAEYEKSQIKRALELGTVMTVFSFRKSTPERRTVQVIMETRQVAWSKTADKIEGFLDIMEIKEIRPGKNSKDFERAKAVRQKEDCCFTILYGTQFVLSTLSLAADSKEDAVNWLSGLKILHQEAMNASTPTIIESWLRKQIYSVDQTRRNSISLRELKTILPLINFKVSSAKFLKDKFVEIGAHKDELSFEQFHLFYKKLMFEQQKSILDEFKKDSSVFILGNTDRPDASAVYLHDFQRFLIHEQQEHWAQDLNKVRERMTKFIDDTMRETAEPFLFVDEFLTYLFSRENSIWDEKYDAVDMQDMNNPLSHYWISSSHNTYLTGDQLRSESSPEAYIRCLRMGCRCIELDCWDGPDGKPVIYHGWTRTTKIKFDDVVQAIKDHAFVTSSFPVILSIEEHCSVEQQRHMAKAFKEVFGDLLLTKPTEASADQLPSPSQLREKIIIKHKKLGPRGDVDVNMEDKKDEHKQQGELYMWDSIDQKWTRHYCAIADAKLSFSDDIEQTMEEEVPQDIPPTELHFGEKWFHKKVEKRTSAEKLLQEYCMETGGKDGTFLVRESETFPNDYTLSFWRSGRVQHCRIRSTMEGGTLKYYLTDNLTFSSIYALIQHYRETHLRCAEFELRLTDPVPNPNPHESKPWYYDSLSRGEAEDMLMRIPRDGAFLIRKREGSDSYAITFRARGKVKHCRINRDGRHFVLGTSAYFESLVELVSYYEKHSLYRKMRLRYPVTPELLERYNMERDINSLYDVSRMYVDPSEINPSMPQRTVKALYDYKAKRSDELSFCRGALIHNVSKEPGGWWKGDYGTRIQQYFPSNYVEDISTADFEELEKQIIEDNPLGSLCRGILDLNTYNVVKAPQGKNQKSFVFILEPKQQGDPPVEFATDRVEELFEWFQSIREITWKIDTKENNMKYWEKNQSIAIELSDLVVYCKPTSKTKDNLENPDFREIRSFVETKADSIIRQKPVDLLKYNQKGLTRVYPKGQRVDSSNYDPFRLWLCGSQMVALNFQTADKYMQMNHALFSLNGRTGYVLQPESMRTEKYDPMPPESQRKILMTLTVKVLGARHLPKLGRSIACPFVEVEICGAEYDNNKFKTTVVNDNGLSPIWAPTQEKVTFEIYDPNLAFLRFVVYEEDMFSDPNFLAHATYPIKAVKSGFRSVPLKNGYSEDIELASLLVFCEMRPVLESEEELYSSCRQLRRRQEELNNQLFLYDTHQNLRNANRDALVKEFSVNENQLQLYQEKCNKRLREKRVSNSKFYS
B8: PRKCZ (protein, UniProt Q05513 1-592, looked up)
Protein kinase C zeta type: MPSRTGPKMEGSGGRVRLKAHYGGDIFITSVDAATTFEELCEEVRDMCRLHQQHPLTLKWVDSEGDPCTVSSQMELEEAFRLARQCRDEGLIIHVFPSTPEQPGLPCPGEDKSIYRRGARRWRKLYRANGHLFQAKRFNRRAYCGQCSERIWGLARQGYRCINCKLLVHKRCHGLVPLTCRKHMDSVMPSQEPPVDDKNEDADLPSEETDGIAYISSSRKHDSIKDDSEDLKPVIDGMDGIKISQGLGLQDFDLIRVIGRGSYAKVLLVRLKKNDQIYAMKVVKKELVHDDEDIDWVQTEKHVFEQASSNPFLVGLHSCFQTTSRLFLVIEYVNGGDLMFHMQRQRKLPEEHARFYAAEICIALNFLHERGIIYRDLKLDNVLLDADGHIKLTDYGMCKEGLGPGDTTSTFCGTPNYIAPEILRGEEYGFSVDWWALGVLMFEMMAGRSPFDIITDNPDMNTEDYLFQVILEKPIRIPRFLSVKASHVLKGFLNKDPKERLGCRPQTGFSDIKSHAFFRSIDWDLLEKKQALPPFQPQITDDYGLDNFDTQFTSEPVQLTPDDEDAIKRIDQSEFEGFEYINPLLLSTEESV

Legend:
EGFR-L858R = biological target: T1, EGFR-L858R (Homo sapiens, UniProt P00533, L858R); assay: MaMTH EGFR-interactor screen, lentiviral preys against EGFR-L858R bait (interaction score); format: cell-based; settings: MaMTH interaction score of prey with EGFR-L858R bait
T1 construct: with the advantage of testing full-length integral membrane proteins; (GGGGS)2 linker-Cub (human ubiquitin aa 35-76)-GAL4(1-147)-mNFkB(364-550) (C); expressed in transfected cells
Summary of the method: (§1)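 Interaction score is the luciferase fold-change versus averaged negative controls (Fabp5, Pex19, Pex7, GABBR2), with >1 called interacting. Luciferase was measured 24 h after triplicate bait transfection. This followed single-copy prey transduction (MOI ~0.3-0.4) of GAL4UAS-luciferase HEK293T cells and ≥48 h puromycin selection.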

EGFR-Wt [1] = assay: MaMTH EGFR-interactor screen, lentiviral preys against EGFR-wildtype bait (interaction score); format: cell-based, human; settings: ratio of EGFR-Wt mean to EGFR-L858R mean interaction score
Summary of the method: as §1

EGFR-Wt [2] = biological target: T2, EGFR-Wt (Homo sapiens, UniProt P00533); assay: as above; format: cell-based; settings: MaMTH interaction score of prey with EGFR-Wt bait, mean
T2 construct: with the advantage of testing full-length integral membrane proteins; (GGGGS)2 linker-Cub (human ubiquitin aa 35-76)-GAL4(1-147)-mNFkB(364-550) (C); expressed in transfected cells
Summary of the method: as §1

Molecule	EGFR-L858R mean (EGFR-L858R)	Wt/L858R (EGFR-Wt [1])	EGFR-Wt mean (EGFR-Wt [2])
B1	1.20	2.20	2.64
B2	0.36	8.23	2.99
B3	6.58	0.39	2.57
B4	1.49	1.86	2.76
B5	0.94	2.35	2.21
B6	1.16	2.40	2.78
B7	2.43	1.64	3.99
B8	0.89	2.79	2.49
